# Measured values as given in PMC3676522 (Synapse (New York, N.Y.), 2011).
# B1: Tat: Recombinant HIV-1 Tat1-86 protein, LA1/Bru strain of HIV-1 clade B, Genbank accession no. K02013 (protein)
# chain: MEPVDPRLEPWKHPGSQPKTACTTCYCKKCCFHCQVCFTTKALGISYGRKKRRQRRRPPQGSQTHQVSLSKQPTSQPRGDPTGPKE
# How the values were obtained:
# [1] = molecular target: DA transporter (DAT) (Rattus norvegicus, UniProt P23977); assay: [3H]DA uptake into rat striatal synaptosomes; format: biochemical
# [2] = molecular target: human DAT (Homo sapiens, UniProt Q01959); assay: Dissociation of [3H]WIN 35,428 binding from HEK/hDAT cells; conditions: for Dissociation rate K−1 of [3H]WIN 35,428 binding (single component model): experiment B
# human DAT, sequence (Q01959 whole entry): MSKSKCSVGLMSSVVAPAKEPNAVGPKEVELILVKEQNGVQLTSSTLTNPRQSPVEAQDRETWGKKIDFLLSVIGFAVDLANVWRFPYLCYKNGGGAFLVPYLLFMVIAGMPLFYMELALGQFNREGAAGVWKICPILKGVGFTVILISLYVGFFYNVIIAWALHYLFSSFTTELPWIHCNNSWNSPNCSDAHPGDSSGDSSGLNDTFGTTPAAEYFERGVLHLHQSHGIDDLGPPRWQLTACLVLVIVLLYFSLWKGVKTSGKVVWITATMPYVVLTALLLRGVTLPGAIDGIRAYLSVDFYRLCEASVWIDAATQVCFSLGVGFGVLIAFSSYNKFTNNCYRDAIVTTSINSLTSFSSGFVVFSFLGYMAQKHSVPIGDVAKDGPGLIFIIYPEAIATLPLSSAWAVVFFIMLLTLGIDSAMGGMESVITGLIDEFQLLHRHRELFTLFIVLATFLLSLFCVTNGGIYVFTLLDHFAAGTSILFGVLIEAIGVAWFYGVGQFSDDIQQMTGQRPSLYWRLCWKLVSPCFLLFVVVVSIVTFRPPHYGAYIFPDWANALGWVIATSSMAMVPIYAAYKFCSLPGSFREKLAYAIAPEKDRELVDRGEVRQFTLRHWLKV
# DA transporter (DAT), sequence (P23977 whole entry): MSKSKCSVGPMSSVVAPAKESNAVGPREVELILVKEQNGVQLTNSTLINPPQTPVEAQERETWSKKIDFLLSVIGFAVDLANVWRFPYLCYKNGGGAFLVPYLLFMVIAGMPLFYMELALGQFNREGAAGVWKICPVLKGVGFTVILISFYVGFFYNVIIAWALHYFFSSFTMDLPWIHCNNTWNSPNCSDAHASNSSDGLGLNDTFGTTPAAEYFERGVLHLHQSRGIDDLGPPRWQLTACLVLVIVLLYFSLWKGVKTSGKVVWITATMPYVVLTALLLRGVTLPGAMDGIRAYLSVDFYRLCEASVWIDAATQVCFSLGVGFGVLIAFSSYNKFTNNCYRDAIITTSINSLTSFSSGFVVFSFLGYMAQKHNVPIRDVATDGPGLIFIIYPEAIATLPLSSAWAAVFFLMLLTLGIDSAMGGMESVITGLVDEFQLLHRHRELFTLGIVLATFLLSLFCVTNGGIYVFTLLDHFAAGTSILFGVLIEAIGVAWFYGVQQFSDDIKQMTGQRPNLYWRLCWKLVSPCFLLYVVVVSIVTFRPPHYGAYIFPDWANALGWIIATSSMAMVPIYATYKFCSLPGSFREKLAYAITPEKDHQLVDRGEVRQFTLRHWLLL
molecule,measurement,setting,value
COC(=O)[C@H]1[C@@H](OC(=O)c2ccccc2)C[C@@H]2CC[C@H]1N2C [Cocaine],Specific Uptake (percentage of control),[1]; control (cocaine alone),100%
"CN[C@@H]1C[C@@H](c2ccc(Cl)c(Cl)c2)c2ccccc21.Cl [Indatraline, indatraline hydrochloride]",Specific Uptake (percentage of control),"[1]; indatraline 10 nM, control = cocaine alone",33%
B1,Specific Uptake (percentage of control),"[1]; Tat 5 μM, control = cocaine alone",45%
same,"Dissociation rate of [3H]WIN 35,428 relative to that observed with cocaine alone",[2]; Tat added after cocaine,25%
same,"Dissociation rate K−1 of [3H]WIN 35,428 binding (single component model)","[2]; condition-2: cocaine 10 μM at time 0, Tat 5 μM added 5 min later",0.08 ± 0.005 min⁻¹
same,"Dissociation rate K−1 of [3H]WIN 35,428 binding (single component model)",[2]; condition-3: Tat 5 μM alone,0.03 ± 0.009 min⁻¹
